T1: GFP-B9L (full-length), full-length B9L cDNA in pEGFP-C2 (plasmid pEGFP-C2B9L) (mouse, UniProt Q67FY2 1-1494)
T1 construct: expressed in mouse 3T3 cells; also called full-length B9L protein; not shown: green fluorescent protein (GFP) as encoded by vector pEGFP-C2 (Clontech)
T1 sequence: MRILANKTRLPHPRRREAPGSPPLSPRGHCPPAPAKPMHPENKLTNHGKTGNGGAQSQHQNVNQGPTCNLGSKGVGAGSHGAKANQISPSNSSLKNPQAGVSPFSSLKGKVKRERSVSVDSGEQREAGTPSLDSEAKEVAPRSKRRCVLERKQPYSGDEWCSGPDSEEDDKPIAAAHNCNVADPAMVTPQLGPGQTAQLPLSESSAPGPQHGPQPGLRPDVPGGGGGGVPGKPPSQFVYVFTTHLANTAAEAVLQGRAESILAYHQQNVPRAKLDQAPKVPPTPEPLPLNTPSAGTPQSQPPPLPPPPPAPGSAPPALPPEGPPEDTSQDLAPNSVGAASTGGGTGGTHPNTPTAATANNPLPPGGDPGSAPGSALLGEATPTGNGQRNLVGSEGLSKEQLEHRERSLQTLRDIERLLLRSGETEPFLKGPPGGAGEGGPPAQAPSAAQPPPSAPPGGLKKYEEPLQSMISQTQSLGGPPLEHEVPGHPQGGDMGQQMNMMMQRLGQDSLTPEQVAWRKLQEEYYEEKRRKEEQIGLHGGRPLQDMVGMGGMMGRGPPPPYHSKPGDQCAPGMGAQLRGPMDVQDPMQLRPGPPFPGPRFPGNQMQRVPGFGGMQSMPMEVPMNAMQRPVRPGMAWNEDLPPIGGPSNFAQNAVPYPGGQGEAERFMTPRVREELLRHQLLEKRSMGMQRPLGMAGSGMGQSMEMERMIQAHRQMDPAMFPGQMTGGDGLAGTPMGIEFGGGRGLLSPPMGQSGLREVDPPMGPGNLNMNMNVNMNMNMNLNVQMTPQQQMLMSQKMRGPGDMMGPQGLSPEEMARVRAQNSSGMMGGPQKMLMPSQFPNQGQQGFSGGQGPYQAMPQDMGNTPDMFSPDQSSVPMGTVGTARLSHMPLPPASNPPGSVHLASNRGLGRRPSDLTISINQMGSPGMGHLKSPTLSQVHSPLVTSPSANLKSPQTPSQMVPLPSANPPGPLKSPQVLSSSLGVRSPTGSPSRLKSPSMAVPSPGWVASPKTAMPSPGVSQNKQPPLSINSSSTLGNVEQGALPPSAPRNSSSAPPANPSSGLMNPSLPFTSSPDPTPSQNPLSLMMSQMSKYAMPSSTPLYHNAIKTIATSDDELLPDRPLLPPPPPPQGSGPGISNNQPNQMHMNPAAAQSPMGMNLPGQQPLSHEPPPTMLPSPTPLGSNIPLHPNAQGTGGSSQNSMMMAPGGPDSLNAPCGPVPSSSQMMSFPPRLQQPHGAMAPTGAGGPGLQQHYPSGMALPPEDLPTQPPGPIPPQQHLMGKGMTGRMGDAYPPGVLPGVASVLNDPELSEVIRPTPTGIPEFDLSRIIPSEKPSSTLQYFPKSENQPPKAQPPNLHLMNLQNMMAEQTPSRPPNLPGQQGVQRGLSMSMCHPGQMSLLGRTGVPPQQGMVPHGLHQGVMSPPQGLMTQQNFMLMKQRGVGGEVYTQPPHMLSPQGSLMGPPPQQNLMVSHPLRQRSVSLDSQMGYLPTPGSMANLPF

B1: Mutated mouse β-catenin S33Y (other, UniProt Q02248 1-781, looked up)
chain: MATQADLMELDMAMEPDRKAAVSHWQQQSYLDYGIHSGATTTAPSLSGKGNPEEEDVDTSQVLYEWEQGFSQSFTQEQVADIDGQYAMTRAQRVRAAMFPETLDEGMQIPSTQFDAAHPTNVQRLAEPSQMLKHAVVNLINYQDDAELATRAIPELTKLLNDEDQVVVNKAAVMVHQLSKKEASRHAIMRSPQMVSAIVRTMQNTNDVETARCTAGTLHNLSHHREGLLAIFKSGGIPALVKMLGSPVDSVLFYAITTLHNLLLHQEGAKMAVRLAGGLQKMVALLNKTNVKFLAITTDCLQILAYGNQESKLIILASGGPQALVNIMRTYTYEKLLWTTSRVLKVLSVCSSNKPAIVEAGGMQALGLHLTDPSQRLVQNCLWTLRNLSDAATKQEGMEGLLGTLVQLLGSDDINVVTCAAGILSNLTCNNYKNKMMVCQVGGIEALVRTVLRAGDREDITEPAICALRHLTSRHQEAEMAQNAVRLHYGLPVVVKLLHPPSHWPLIKATVGLIRNLALCPANHAPLREQGAIPRLVQLLVRAHQDTQRRTSMGGTQQQFVEGVRMEEIVEGCTGALHILARDVHNRIVIRGLNTIPLFVQLLYSPIENIQRVAAGVLCELAQDKEAAEAIEAEGATAPLTELLHSRNEGVATYAAAVLFRMSEDKPQDYKKRLSVELTSSLFRTEPMAWNETADLGLDIGAQGEALGYRQDDPSYRSFHSGGYGQDALGMDPMMEHEMGGHHPGADYPVDGLPDLGHAQDLMDGLPPGDSNQLAWFDTDL
notes: Expressed from pMKITneo in COS-7 or NIH 3T3 cells; also called S33Y β-catenin

Experiments:
[1] = target: B1; experiment: co-immunoprecipitation from COS-7 lysates with anti-GFP antibody, Western blotting with anti-β-catenin antibody
Excerpt: The B9L cDNA fragment obtained in Example 1 was inserted into pEGFP-C2, green fluorescent protein (GFP) expression vector (Clontech), to construct an expression plasmid for GFP-B9L fusion protein (hereinafter abbreviated as GFP-B9L). Mutated mouse β-catenin S33Y cDNA wherein serine 33, the target site of GSK-3β-mediated phosphorylation, is substituted with tyrosine was subcloned into animal cell expression plasmid vector pMKITneo (Nakamura et al., Genes to cells 3: 395 (1998)) to construct an expression plasmid for S33Y β-catenin. These plasmids were transfected using LipofectAMINE (Life Technologies) into monkey kidney cell line COS-7 cells (ATCC: CRL-1651) for forced expression. After 24 hr, the cells were harvested to prepare cell lysates by adding buffer A containing 1% Triton X-100. The cell lysates were reacted with anti-GFP antibody or anti-β-catenin antibody at 4° C. for 1 hr to form an immune complex between GFP-B9L or S33Y β-catenin and the respective antibody, and then Protein G-Sepharose 4B (Amersham Pharmacia Biotech), which is capable of binding to IgG, was added to the reaction solution to adsorb the immune complex. The Protein G-Sepharose 4B was washed well with lysis buffer A, and SDS-PAGE sample buffer was added to elute the immune complex. […]

[2] = target: T2, GAL4-β-catenin fusion protein (GAL4 BD fused with mouse β-catenin armadillo domain, residues 128 to 683) (yeast; mouse, UniProt P04386 1-147; Q02248 128-683); experiment: yeast two-hybrid, β-galactosidase activity
T2 construct: Bait of the yeast two-hybrid system; also called mβ-catenin arm; β-catenin arm bait plasmid
Excerpt: The respective bait plasmids were cotransfected with the B9L cDNA fragment-expressing clone obtained by the two-hybrid system in Example 1 into yeast HF7C strain, and the binding between the B9L protein and the respective β-catenin partial fragments were examined by the existence of β-galactosidase activity in the transformants. […] Thus, it was considered that the B9L protein binds to the N-terminal region of β-catenin arm (armadillo repeats 1-6).
In order to further examine which region of the B9L protein binds to the β-catenin arm, two-hybrid system was performed as follows. […] Each plasmid was cotransfected with the β-catenin arm bait plasmid prepared in Example 1 into yeast HF7C strain, and the binding of each B9L protein partial fragment and β-catenin arm was examined based on the presence or absence of β-galactosidase activity in the transformants. […] Thus, the B9L protein was indicated to bind to the β-catenin arm at the region of residues 292-439 in the amino acid sequence represented by SEQ ID NO: 2.

[3] = target: T1, GFP-B9L (full-length), full-length B9L …; experiment: co-localisation in the nucleus of mouse 3T3 cells, fluorescence microscopy (indirect)
Protocol: The plasmids for the expression of GFP-B9L and S33Y β-catenin constructed in Example 3 were transfected alone or together into mouse NIH 3T3 cells using Effectene (QIAGEN), and were forcedly expressed. GFP expression vector pEGFP-C2, as a control, was also transfected into mouse NIH 3T3 cells and was forcedly expressed. After 24 hours, the cells were fixed with formaldehyde, stained with anti-β-catenin antibody, reacted with rhodamine isothiocyanate (RITC)-labeled anti-rabbit IgG antibody, and observed by fluorescence microscopy to detect S33Y β-catenin in the cell. GFP-B9L was directly detected by observation of GFP under fluorescence microscopy (with the use of-FITC filter).
The full-length B9L cDNA obtained in Example 1 was inserted into the ECORI-SalI site of pEGFP-C2 to prepare plasmid pEGFP-C2B9L for the expression in animal cells, cotransfected with S33Y β-catenin expression plasmid into mouse 3T3 cells and the plasmids were forcedly expressed as described above, and S33Y β-catenin was. detected in the cells. Similar to theB9L protein fragment obtained by the two hybrid system, both S33Y β-catenin and GFP-B9L (full-length) were localized in the nucleus. Thus, the full-length B9L protein was also confirmed to bind to β-catenin and localizes β-catenin into the nucleus.

| binding result [2] | Binder | other results |
| --- | --- | --- |
| – | GFP-B9L fusion protein (B9L cDNA fragment, SEQ ID NO: 4, in pEGFP-C2) (other, Expressed in COS-7 and NIH 3T3 cells; not shown: green fluorescent protein (GFP) as encoded by vector pEGFP-C2 (Clontech)) LANTAAEAVLQGRAESILAYHQQNVPRAKLDQAPKVPPTPEPLPLNTPSAGTPQSQPPPLPPPPPAPGSAPPALPPEGPPEDTSQDLAPNSVGAASTGGGTGGTHPNTPTAATANNPLPPGGDPGSAPGSALLGEATPTGNGQRNLVGSEGLSKEQLEHRERSLQTLRDIERLLLRSGETEPFLKGPPGGAGEGGPPAQAPSAAQPPPSAPPGGLKKYEEPLQSMISQTQSLGGPPLEHEVPGHPQGGDMGQQMNMMMQRLGQDSLTPEQVAWRKLQEEYYEEKRRKEEQIGLHGGRPLQDMVGMGGMMGRGPPPPYHSK | binding result [1]: binds |
| binds | GAL4 AD fusion of B9L partial fragment, residues 292-439 of SEQ ID NO: 2 (other, not shown: large carriers, Two-hybrid prey; also called B9L fragment of residues 292-439) PSAGTPQSQPPPLPPPPPAPGSAPPALPPEGPPEDTSQDLAPNSVGAASTGGGTGGTHPNTPTAATANNPLPPGGDPGSAPGSALLGEATPTGNGQRNLVGSEGLSKEQLEHRERSLQTLRDIERLLLRSGETEPFLKGPPGGAGEGG | – |
| no binding | GAL4 AD fusion of B9L partial fragment, residues 440-564 of SEQ ID NO: 2 (other, not shown: large carriers, Two-hybrid prey) PPAQAPSAAQPPPSAPPGGLKKYEEPLQSMISQTQSLGGPPLEHEVPGHPQGGDMGQQMNMMMQRLGQDSLTPEQVAWRKLQEEYYEEKRRKEEQIGLHGGRPLQDMVGMGGMMGRGPPPPYHSK | – |
| no binding | LANTAAEAVLQGRAESILAYHQQNVPRAKLDQAPKVPPTPEPLPLNT (other, not shown: large carriers, Two-hybrid prey) [GAL4 AD fusion of B9L partial fragment, residues 245-291 of SEQ ID NO: 2] | – |
| binds | GAL4 AD fusion of B9L partial fragment, residues 245-439 of SEQ ID NO: 2 (other, not shown: large carriers, Two-hybrid prey) LANTAAEAVLQGRAESILAYHQQNVPRAKLDQAPKVPPTPEPLPLNTPSAGTPQSQPPPLPPPPPAPGSAPPALPPEGPPEDTSQDLAPNSVGAASTGGGTGGTHPNTPTAATANNPLPPGGDPGSAPGSALLGEATPTGNGQRNLVGSEGLSKEQLEHRERSLQTLRDIERLLLRSGETEPFLKGPPGGAGEGG | – |
| binds | GAL4 AD fusion of B9L partial fragment, residues 292-564 of SEQ ID NO: 2 (other, not shown: large carriers, Two-hybrid prey) PSAGTPQSQPPPLPPPPPAPGSAPPALPPEGPPEDTSQDLAPNSVGAASTGGGTGGTHPNTPTAATANNPLPPGGDPGSAPGSALLGEATPTGNGQRNLVGSEGLSKEQLEHRERSLQTLRDIERLLLRSGETEPFLKGPPGGAGEGGPPAQAPSAAQPPPSAPPGGLKKYEEPLQSMISQTQSLGGPPLEHEVPGHPQGGDMGQQMNMMMQRLGQDSLTPEQVAWRKLQEEYYEEKRRKEEQIGLHGGRPLQDMVGMGGMMGRGPPPPYHSK | – |
| – | B1 | binding result [3]: binds |

Reference: US20040073001A1 (Kyowa Kirin, published 2004)
